Test results reported in publication PMC4996978, “A MUB E2 structure reveals E1 selectivity between cognate ubiquitin E2s in eukaryotes” (Nature Communications, 2016).

Tests used:
GST-AtUBC8 = molecular target: T1, GST-AtUBC8 (Arabidopsis thaliana, UniProt P35131 1-148); assay: pull-down; GST-AtUBC8 immobilized on GSH resin; equimolar His-tagged AtMUB3, AtMUB3 mutants and Ub incubated separately for 15 min; washed three times with sonication buffer (50 mM Tris-HCl pH 7.5, 300 mM NaCl, 10% glycerol, 10 mM imidazole); immunoblot; conditions: both partners purified
T1 construct: Arabidopsis thaliana ubiquitin-conjugating enzyme E2 8 (AtUBC8); also called GST-tagged AtUBC8; source: E. coli Rosetta 2 (DE3) pLacI, soluble extract fraction immobilized on GSH resin and washed

biotinylated E2 (Ube2D3) = molecular target: T2, biotinylated E2 (Ube2D3) (human, UniProt P61077 1-147, biotin); assay: inhibition of E2 activation (HTRF-FRET E2∼Ub formation assay); 1 nM E1 (HsUBE1), 10 μM Mg-ATP, 50 nM Ub-fluorescein, 0.9 nM streptavidin-terbium, 5 nM biotinylated Ube2D3; 50 mM Tris-HCl pH 7.5, 5 mM MgCl2, 0.05% CHAPS; HsMUB pre-incubated with E2 for 15 min; initial velocity against HsMUB concentration fit to a one-site binding model; IC50 equivalent to Ki; conditions: both partners purified
T2 construct: human ubiquitin-conjugating enzyme E2 D3 (Ube2D3), biotinylated, labelled with streptavidin-terbium in the assay; source: reagents adapted from the E1/E2 Lite kit (LifeSensors, Malvern, PA)
T2 sequence (P61077 whole entry): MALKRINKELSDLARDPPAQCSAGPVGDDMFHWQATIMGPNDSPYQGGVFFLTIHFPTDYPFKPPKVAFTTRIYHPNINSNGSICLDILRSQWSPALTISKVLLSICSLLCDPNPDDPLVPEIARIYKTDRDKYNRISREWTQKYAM

T1 sequence (P35131 whole entry): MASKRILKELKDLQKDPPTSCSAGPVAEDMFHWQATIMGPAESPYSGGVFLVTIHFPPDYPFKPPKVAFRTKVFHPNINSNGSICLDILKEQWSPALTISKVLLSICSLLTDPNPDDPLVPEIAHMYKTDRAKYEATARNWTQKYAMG

Binder	binding result (GST-AtUBC8)	Ki (biotinylated E2 (Ube2D3))
AtMUB3-His (natural protein, Arabidopsis thaliana, UniProt Q9SW27 1-118, looked up, coding region cloned without stop codon into pET28b; also called His-tagged AtMUB3; not shown: His6, C-terminal, kept) MPEEESIDIKFRLYDGSDIGPFRYSAASTVDFLKQRVVSDWPKGKTVVPKGINEVKLISSGKILENNKTVGQCKTPFGDIAGGVIVMHVVVQPSLAKSKTEKKVDKAPKAVICTCTIL	binds	–
AtMUB3 P76A F77A G78A D79A I80A (All A) (natural protein, Arabidopsis thaliana, Generated by bridging-PCR and cloned into pET28b; also called AtMUB3 All A LBL mutant; AtMUB3 with the core LBL residues ProPheGlyAspIle all converted to alanines) MPEEESIDIKFRLYDGSDIGPFRYSAASTVDFLKQRVVSDWPKGKTVVPKGINEVKLISSGKILENNKTVGQCKTAAAAAAGGVIVMHVVVQPSLAKSKTEKKVDKAPKAVICTCTIL	binds	–
HsMUB (natural protein, human, UniProt O95164 1-117, looked up, Homo sapiens membrane-anchored ubiquitin-fold protein (HsMUB); coding region cloned without stop codon into pET28b; also called human homologue of MUB; source: E. coli Rosetta 2 (DE3) pLacI, purified) MSSNVPADMINLRLILVSGKTKEFLFSPNDSASDIAKHVYDNWPMDWEEEQVSSPNILRLIYQGRFLHGNVTLGALKLPFGKTTVMHLVARETLPEPNSQGQRNREKTGESNCCVIL	–	220 ± 16 nM
